# The nanobody polyreactivity screen of Harvey et al. (2022)
# Assay: yeast display, Sf9 membrane polyspecificity reagent, FACS + sequencing; frameworks hold sequencing errors
# How it was run: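 In a synthetic yeast display library (Saccharomyces cerevisiae BJ5465), nanobody expression was induced with galactose for 36–48 hours. FACS gates were set low and high (top ~1%) using anti-HA fluorescence for expression and streptavidin fluorescence for binding of the Sf9 membrane reagent. Each polyreactivity label is drawn from the gate of origin.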
row,Sequence,polyreactivity (PSR sort gate)
1,QVQLVESRGGLVQAGGSLRLSCAATGFTIYYYAMGWYRQAPGKERELVAAITGSGGSTYYADSVKGRFTISRDNAKNTVYLQMNSLKPEDTAVYYCARRYQVGWYYKYDYWGQGTQVTVSS,high polyreactivity
2,QVQLVESRGGLVQAGGSLRLSCADSGITFYVYTMGWNIKAPGKQRDLVASISGRGGSTYYAVSVKGRFTISRDNAKNTVYLQMNSLKPEDTAVYYCEAYRLRFWSMDYWGQGTQVTGSS,high polyreactivity
3,QVQLVESRGGLVQAGGSLRLSCPASGSIFPDNAMGWYRQAPGKERELDAAITRGGSTYYADSEKGRFTISRDNAKNTVYLQMNSLKPEDTAVYYCAVVRYYVSMDNWGQGTQVTVSS,high polyreactivity
4,QVQLVESRGGLVQAGGSLRLSCSASGRIFTTYAMGWYRQAPGKEREFVAAISRSGGSTYYADSVKGRFTISRDNAKNTVYLQMNSLKPEDTAVYYCAAVPTSNSLRSSFSYWGQGSQVTVSS,high polyreactivity
5,QVQLVESRGGLVQAGGSLSLSCAASGSTYNASAMGWYRQATGKERELVAAISSGGSTYYADSVKGRFTISRDNANNTVYLQMNSLKPEDTAVLYCAAVLTGHYYRFDYWGQGTQVNVSS,low polyreactivity
6,QVQLVESRGGLVQAGGTLRLSCAASGSTFAVNAMGWYRQAPGKERELVATITGSGGSTYYADSVKGRFTISRDNAKNTVYLQLNSLKPEDTAVYYCATDLVFDKRYWYDYWGQGTQVTVSS,low polyreactivity
7,QVQLVESRGGVVQAGGSLRLRCAASGRTFYRNVMGWSRQAPGKERELVAAITGDGGSTYYADSVKGRFTISRDNAKNTVYVQMNSQKAEVTAVYYCAASVYPQKRFFYWGHGTQVTVSS,high polyreactivity
8,QVQLVESRGVLVQAGGSLRLSCAASGSIFYFYAMGWYRQAPGKERELVAAISWSGGSTYYADSVKGRFTISRDTSKNTVYLQMHSLKPEDTPVYYCNAADYWYWENDYWGQGTQVTVSS,low polyreactivity
9,QVQLVESRGVLVQAGGSLRLSCAASGSTFTGYAMGWYRQAPGKERELVAGITGSGGSTYYADSVMGRFTISRDNAKITVYFQMNSLKPVDTAVYYCAAACWYHYVWLDYFWGQGTQVTVSS,low polyreactivity
10,QVQLVESRGVLVQAGGSLRLSCAGSGSTILRYALGWYRQAPGKERELVAAINWSGGGTSYADSVKGRFTISRDNAKNTVYFQMNSLKPEDTAVYYCAAYFRYSNYWSEYWGQGTQVTVSS,high polyreactivity
11,QVQLVESRRGLVQAGGSLRLSCAASGRIFYRYALGWYRQAPGKEREFVAAISRSGGTTYYADSVKGRFTISRDNAKNTVYLQMNSLNPEDTAVYYCAAGGSFWYFSPRYGYWGQGTQVTVSS,high polyreactivity
12,QVQLVESRRGLVQARGSLRLSCAASGITFRWYAMGWYRQAPGKERELVAAITTGGSTKYADSVKGRFTISRDNAKNTVYLQMNSLKPEDTAVYYCAARGRYAGGYWGQGTQVTVSS,high polyreactivity
13,QVQLVESRVGLVQAGGSLRLSCAASGITFYGYAMGWYRQAPGKERELVAAITSGGSTYYADTVKGRFTISRDNAKNTVYFQMNSLKPEDTAVYYCAAYLRRAYVHSYERYYWGQGTQVTVSS,low polyreactivity
14,QVQLVESRWRFVQAGGSLRLSCAASGSIFADYAMGWYRQAPGKERELVAAITFSGGSTYYADSVKGRFTISRDNAKNTVYLQMNSLKPEDTAVYYCAARWRYRYYSWGQGTQVTVSS,high polyreactivity
15,QVQLVESSGGLVQAGGSLRLSCAASGRIFQAYAMGWYRQAPGKEREMVAAITGGGSTNYADSVKGRFTISRDNAKNTVYLQMNSLKPEDTAVYYCNAVTGTYGWGPQAREQEDYWGQGTQVTVSS,low polyreactivity
16,QVQLVESSGGLVQAGGSLSLICAASVLIFNFYSMGWYRQAPGKERELVDAISWNAGSTYYADSVKGRFTISRDNAKNTVYLQMNSLKPEDTAVYYCAVLPGRYDKTASHYDYWGQGTQVTVSS,low polyreactivity
